# According to PMC3310817, “Liver X Receptors Regulate the Transcriptional Activity of the Glucocorticoid Receptor: Implications for the Carbohydrate Metabolism”:
# B1: Classic GRE wt (dsDNA)
# DNA 1: AGCTGGTACAAACTGTTCTAGCT
# DNA 2: AGCTAGAACAGTTTGTACCAGCT
# B2: G6Pase GRE wt (dsDNA)
# DNA 1: GCACTGTCAAGCAGTGTGCCCAAGTTAATAATT
# DNA 2: AATTATTAACTTGGGCACACTGCTTGACAGTGC
# How the values were obtained:
# [1] = target: T1, LXRα (recombinant, Active Motif);RXRα (recombinant, Active Motif) (Homo sapiens;Homo sapiens, UniProt Q13133;P19793 1-447;1-462, |); experiment: EMSA; GW3965 (enhances binding); EMSA: 10 mM HEPES pH 8.0, 0.1 mM EDTA, 2 mM DTT, 50 mM NaCl, 5 mM MgCl2, 50 mM KCl, 4 mM spermidine, 4% Ficoll, 1 ug poly(dI-dC); preincubation 10 min 4 C, then 15 min room temperature with probe; conditions: protein: commercial;commercial; tags: ;; copies: 1;1; label: 32P; blunt
# T1 sequence (Q13133 whole entry, chain 1 of 2): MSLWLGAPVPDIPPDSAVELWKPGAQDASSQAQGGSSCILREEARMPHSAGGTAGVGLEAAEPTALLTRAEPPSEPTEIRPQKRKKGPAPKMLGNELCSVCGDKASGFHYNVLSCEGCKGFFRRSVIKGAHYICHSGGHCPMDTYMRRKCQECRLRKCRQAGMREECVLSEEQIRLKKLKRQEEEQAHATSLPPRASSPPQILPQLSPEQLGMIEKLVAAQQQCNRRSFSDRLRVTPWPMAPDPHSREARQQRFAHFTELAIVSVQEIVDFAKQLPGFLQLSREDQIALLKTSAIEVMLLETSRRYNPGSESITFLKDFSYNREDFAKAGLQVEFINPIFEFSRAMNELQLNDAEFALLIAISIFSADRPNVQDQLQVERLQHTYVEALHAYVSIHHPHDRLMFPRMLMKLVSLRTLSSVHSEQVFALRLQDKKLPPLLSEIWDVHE
# T1 sequence (P19793 whole entry, chain 2 of 2): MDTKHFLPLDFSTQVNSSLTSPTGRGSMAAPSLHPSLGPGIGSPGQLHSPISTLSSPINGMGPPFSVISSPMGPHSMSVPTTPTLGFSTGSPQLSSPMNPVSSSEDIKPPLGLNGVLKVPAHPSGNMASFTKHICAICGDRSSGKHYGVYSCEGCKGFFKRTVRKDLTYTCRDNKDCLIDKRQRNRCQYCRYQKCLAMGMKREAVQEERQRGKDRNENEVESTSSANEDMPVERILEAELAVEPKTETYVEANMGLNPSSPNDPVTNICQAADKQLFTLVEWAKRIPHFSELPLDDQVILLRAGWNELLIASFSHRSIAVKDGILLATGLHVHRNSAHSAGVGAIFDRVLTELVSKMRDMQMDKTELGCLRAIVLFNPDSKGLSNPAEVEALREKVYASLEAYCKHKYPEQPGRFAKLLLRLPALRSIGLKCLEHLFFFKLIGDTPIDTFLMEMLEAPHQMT
# [2] = target: T1, LXRα (recombinant, Active Motif);RXRα …; experiment: EMSA; complex C; EMSA: 10 mM HEPES pH 8.0, 0.1 mM EDTA, 2 mM DTT, 50 mM NaCl, 5 mM MgCl2, 50 mM KCl, 4 mM spermidine, 4% Ficoll, 1 ug poly(dI-dC); preincubation 10 min 4 C, then 15 min room temperature with probe; conditions: protein: commercial;commercial; tags: ;; copies: 1;1; label: 32P; blunt
Binder,binding result [1],binding result [2]
B1,binds,
B2,,binds
